Results from patent US20090270506A1 (published 2009).

B1: human 2,3-oxidosqualene:lanosterol cyclase with C-terminal myc-epitope and 6xHis-tag (enzyme)
chain: TEGTCLRRRGGPYKTEPATDLGRWRLNCERGRQTWTYLQDERAGREQTGLEAYALGLDTKNYFKDLPKAHTAFEGALNGMTFYVGLQAEDGHWTGDYGGPLFLLPGLLITCHVARIPLPAGYREEIVRYLRSVQLPDGGWGLHIEDKSTVFGTALNYVSLRILGVGPDDPDLVRARNILHKKGGAVAIPSWGKFWLAVLNVYSWEGLNTLFPEMWLFPDWAPAHPSTLWCHCRQVYLPMSYCYAVRLSAAEDPLVQSLRQELYVEDFASIDWLAQRNNVAPDELYTPHSWLLRVVYALLNLYEHHHSAHLRQRAVQKLYEHIVADDRFTKSISIGPISKTINMLVRWYVDGPASTAFQEHVSRIPDYLWMGLDGMKMQGTNGSQIWDTAFAIQALLEAGGHHRPEFSSCLQKAHEFLRLSQVPDNPPDYQKYYRQMRKGGFSFSTLDCGWIVSDCTAEALKAVLLLQEKCPHVTEHIPRERLCDAVAVLLNMRNPDGGFATYETKRGGHLLELLNPSEVFGDIMIDYTYVECTSAVMQALKYFHKRFPEHRAAEIRETLTQGLEFCRRQQRADGSWEGSWGVCFTYGTWFGLEAFACMGQTYRDGTACAEVSRACDFLLSRQMADGGWGEDFESCEERRYVQSAQSQIHNTCWAMMGLMAVRHPDIEAQERGVRCLLEKQLPNGDWPQENIAGVFNKSCAISYTSYRNIFPIWALGRFSQLYPERALAGHLEQKLISEEDLNSAVDHHHHHH
B2: human 2,3-oxidosqualene:lanosterol cyclase, wild-type without tag (enzyme)
chain: TEGTCLRRRGGPYKTEPATDLGRWRLNCERGRQTWTYLQDERAGREQTGLEAYALGLDTKNYFKDLPKAHTAFEGALNGMTFYVGLQAEDGHWTGDYGGPLFLLPGLLITCHVARIPLPAGYREEIVRYLRSVQLPDGGWGLHIEDKSTVFGTALNYVSLRILGVGPDDPDLVRARNILHKKGGAVAIPSWGKFWLAVLNVYSWEGLNTLFPEMWLFPDWAPAHPSTLWCHCRQVYLPMSYCYAVRLSAAEDPLVQSLRQELYVEDFASIDWLAQRNNVAPDELYTPHSWLLRVVYALLNLYEHHHSAHLRQRAVQKLYEHIVADDRFTKSISIGPISKTINMLVRWYVDGPASTAFQEHVSRIPDYLWMGLDGMKMQGTNGSQIWDTAFAIQALLEAGGHHRPEFSSCLQKAHEFLRLSQVPDNPPDYQKYYRQMRKGGFSFSTLDCGWIVSDCTAEALKAVLLLQEKCPHVTEHIPRERLCDAVAVLLNMRNPDGGFATYETKRGGHLLELLNPSEVFGDIMIDYTYVECTSAVMQALKYFHKRFPEHRAAEIRETLTQGLEFCRRQQRADGSWEGSWGVCFTYGTWFGLEAFACMGQTYRDGTACAEVSRACDFLLSRQMADGGWGEDFESCEERRYVQSAQSQIHNTCWAMMGLMAVRHPDIEAQERGVRCLLEKQLPNGDWPQENIAGVFNKSCAISYTSYRNIFPIWALGRFSQLYPERALAGHP
notes: Expressed in P. pastoris from pPICZB; the whole entry is named; also called hOSC wildtype; hOSC wild-type

How the values were obtained:
[1] = target: human 2,3-oxidosqualene:lanosterol cyclase with C-terminal myc-epitope and 6xHis-tag (human) (UniProt P48449); experiment: self-association; sedimentation equilibrium AUC at 14,000 rpm, 0.6% C8E5, supernatant at equilibrium
[2] = target: human 2,3-oxidosqualene:lanosterol cyclase with C-terminal myc-epitope and 6xHis-tag (human) (UniProt P48449); experiment: self-association; sedimentation equilibrium AUC at 14,000 rpm, 0.8% β-OG, supernatant at equilibrium
[3] = target: human 2,3-oxidosqualene:lanosterol cyclase with C-terminal myc-epitope and 6xHis-tag (human) (UniProt P48449); experiment: self-association; sedimentation equilibrium AUC at 14,000 rpm, 0.016% DDM, supernatant at equilibrium
[4] = target: human 2,3-oxidosqualene:lanosterol cyclase with C-terminal myc-epitope and 6xHis-tag (human) (UniProt P48449); experiment: self-association; sedimentation equilibrium AUC at 14,000 rpm, 0.06% LDAO, supernatant at equilibrium
[5] = target: human 2,3-oxidosqualene:lanosterol cyclase with C-terminal myc-epitope and 6xHis-tag (human) (UniProt P48449); experiment: self-association; sedimentation equilibrium AUC at 14,000 rpm, 0.2% Triton X-100, supernatant at equilibrium
[6] = target: human 2,3-oxidosqualene:lanosterol cyclase with C-terminal myc-epitope and 6xHis-tag (human) (UniProt P48449); experiment: self-association; sedimentation equilibrium AUC at 14,000 rpm, 0.2% β-OG (below CMC), supernatant at equilibrium
[7] = target: the molecule itself; experiment: sedimentation equilibrium, analytical ultracentrifuge, 0.8% β-OG (self-association)
Method: Sedimentation equilibrium (SE) runs were performed at various speeds at 20° C. with sample volume of 100 μl using an Optima XL-I analytical ultracentrifuge (Beckman-Coulter, Palo Alto). The initial protein concentrations were 0.2-0.6 mg/ml in 20 mM Tris-HCl pH 7.5, 5% glycerol, 1 mM TCEP, 0.8% β-OG and 1 mM MgCl₂ (buffer B). The equilibrium absorbance profiles were recorded after 20 hours at 280 nm.
Analysis of the profiles was performed with the Beckman software package and the Schuck program [sequence] […] All solvent densities matched to the detergent densities by addition of sucrose, or not matched, were measured with a PAAR density meter, type DMA4500 (Anton Paar, Graz, Austria). The detergent densities were assessed in the buffer without protein from separate SE runs where the interference detection optics was used for the non absorbing detergents. […] Because of the sucrose addition the hydration state of the protein has to be considered. […] Thus, this value was used. […] The profiles were analysed by a model with various numbers of bound micelles. […] Thus, the analysis was carried out under this assumption providing a vbar value of 0.791 cm³/g. Similarly, the non-density-matched sample with β-OG under the cmc was analysed with vbar=0746 cm³/g.

Binder	monomer [%] [1] [%]	monomer [%] [2] [%]	dimer [%] [3] [%]	monomer [%] [3] [%]	tetramer [%] [3] [%]	dimer [%] [4] [%]	monomer [%] [4] [%]	monomer [%] [5] [%]	dimer [%] [6] [%]	monomer [%] [6] [%]	tetramer [%] [6] [%]	trimer [%] [6] [%]	binding result [7]
B1	100	100	23	70	7	6	94	100	71	0	18	11	–
B2	–	–	–	–	–	–	–	–	–	–	–	–	no binding
